Reference: patent publication US5559213A, “Polyethylene-protein conjugates” (Hoffmann-La Roche Inc., priority 1995, dated 1996)

Key:
[1] = biological target: T1, IL-1 receptor on EL-4 membranes (Mus musculus, UniProt P13504); assay: IL-1 radioreceptor competition binding assay
T1 construct: incubated at varying concentrations with EL-4 membranes; endogenous in cells; host or cells: EL-4 cell membranes
T1 sequence (P13504 20-576): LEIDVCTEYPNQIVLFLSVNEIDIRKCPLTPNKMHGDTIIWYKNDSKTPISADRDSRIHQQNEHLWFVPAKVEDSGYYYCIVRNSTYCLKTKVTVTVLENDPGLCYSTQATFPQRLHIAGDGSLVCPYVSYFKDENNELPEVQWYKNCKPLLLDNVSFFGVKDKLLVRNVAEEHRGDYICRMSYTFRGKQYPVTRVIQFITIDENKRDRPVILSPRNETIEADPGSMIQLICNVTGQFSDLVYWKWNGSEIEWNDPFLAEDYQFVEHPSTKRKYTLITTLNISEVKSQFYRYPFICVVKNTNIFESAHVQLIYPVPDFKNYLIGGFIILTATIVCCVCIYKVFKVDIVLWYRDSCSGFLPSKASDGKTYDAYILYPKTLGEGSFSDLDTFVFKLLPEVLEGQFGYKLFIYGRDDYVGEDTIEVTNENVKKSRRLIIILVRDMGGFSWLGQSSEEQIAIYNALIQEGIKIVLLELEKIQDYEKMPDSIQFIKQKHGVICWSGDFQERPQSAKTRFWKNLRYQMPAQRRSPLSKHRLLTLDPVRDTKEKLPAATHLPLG
Protocol: Pegylated IL-1ra was purified from the reaction mixture using hydrophobic exchange chromatography (Bio-Rad; HRLC MP7 HlC). A linear gradient with decreasing salt concentrations from 0.43 to 0.0M (NH4)2 SO4 in 50 mM sodium phosphate pH 7.0 in 20 minutes was used to separate pegylated IL-1ra and unmodified IL-1ra. Aliquots of fractions were evaluated by SDS-PAGE and pooled fractions were assayed in an IL-1 radioreceptor competition binding assay. [Kilian et al. J. Immunol., 136, 4509, (1986)]. Briefly, IL-1ra and PEG-IL-1ra were incubated at varying concentrations with EL-4 membranes for 30 min at 37° C. The [^125 I]IL-1 alpha was then added and the incubation continued for 30 min. The assay was terminated by vacuum filtration and the collection of cell bound [^125 I]IL-1 on filter plates. The concentration of IL-1ra or PEG-IL-1ra that inhibits binding of [^125l]IL- 1 by 50% (IC50) was determined graphically. […] The pegylated IL-1ra mixture retained its ability-to bind to the IL-1 receptor on EL-4 membranes within a factor 2 to 3 fold relative to the unmodified II1-1ra.

[2] = tested on: rIL-1alpha induction of interleukin-6; assay: Inhibition of rIL-1alpha induction of interleukin-6 in mice (pharmacodynamics); format: in vivo
Protocol: The pharmacodynamics of IL-1ra protein was evaluated in vivo by the ability of the IL-1ra to inhibit rIL-1alpha induction of interleukin-6. Serum from mice treated with rIL-1alpha contain high levels of IL-6, [McIntosh et al., Immunol. 143: 162, (1989)]. The administration of unmodified IL-1ra together with IL-1alpha (0 hr time point) inhibits the induction of IL-6. This test system was used to compare the pharmacodynamic properties of unmodified and PEG IL-1ra. […] Three hours later, serum samples were collected. IL-6 levels (units) were determined using a modification of an IL-6 assay that has been previously described [Van Snick et al., Proc. Natl. Acad. Sci. USA 83:9679, (1986)]. In the IL.-6 assay, B9 hybridoma cells were treated with two fold serial dilutions of the test sera in 96-well microtiter plates. Following a 3 day incubation at 37° C. in a humidified atmosphere comprised of 5% CO2 and 95% air, the wells were pulsed with 0.5 uCi of tritiated thymidine and incubated for an additional 18 hr. The cells were then harvested onto glass fiber filters and the level of tritiated thymidine incorporation was determined by scintillation counting. IL-6 activity is expressed as U/ml. IL-6 units are defined as the inverse of the serum dilution which produces half-maximal tritiated thymidine incorporation compared to a reference standard.

[3] = Pharmacokinetic profile: serum IL-1ra levels in mice after subcutaneous administration; format: in vivo; conditions: for Serum Concentration of IL-1ra: Table D2 (pegylated as in Example 6a), 100 ug s.c.; for Serum Level of IL-1ra: Table D4 (reagent of Example 11a); for Serum IL-1ra: Table D5 (reagent of Example 18a)
Protocol: To determine the pharmacokinetic profile of PEG-IL-1ra species, C57BF/6 mice were administered 100 ug of […] or pegylated IL-1ra species subcutaneously. Serum samples were collected after 1, 2, 3, 4 and 6 hours from mice that received unmodified IL-1ra and after 2, 4, 8, 10, and 24 hours from mice that received PEG-IL-1ra. The serum levels were determined in the EL4 membrane binding assay described in Example 6.

IL-1ra: Interleukin-1 receptor antagonist, unmodified; apparent molecular weight 19 kD by SDS-PAGE
IC50 ([1]; Example 6, Table VI: IL-1ra conjugated with reagent of Example 5, label = apparent molecular weight): 2.0 ng/mL | IC50 ([1]; Example 6A, Table VII: IL-1ra conjugated with reagent of Example 5a, label = apparent molecular weight (kD)): 1.6 ng/mL | IC50 ([1]; Example 12, Table XII: IL-1ra pegylated with reagent of Example 11, label = apparent molecular weight (kD)): 2.0 ng/mL | IC50 ([1]; Example 12A, Table XIII: IL-1ra pegylated with reagent of Example 11a, label = apparent molecular weight (kD)): 0.8 ng/mL | IC50 ([1]; Example 19, Table XIV: IL-1ra pegylated with reagent of Example 18, label = apparent molecular weight (kD)): 2.0 ng/mL | IC50 ([1]; Example 19A, Table XV: IL-1ra pegylated with reagent of Example 18a, label = apparent molecular weight (kD)): 1.5 ng/mL | IC50 ([1]; Example 26, Table XVIII: IL-1ra pegylated with reagent of Example 23, label = apparent molecular weight (kD)): 2.0 ng/mL | IC50 ([1]; Example 29, Table XX: IL-1ra pegylated with reagent of Example 28, label = molecular weight (kD)): 1.4 ng/mL | IC50 ([1]; Example 32, Table XXII: rIL-1ra conjugated with reagent of Example 31, label = apparent molecular weight (kD)): 1.5 ng/mL | IC50 ([1]; Example 38, Table XXV: rIL-1ra conjugated with the reagent described in Example 35 (so in the source), label = apparent molecular weight (kD)): 1.0 ng/mL | IC50 ([1]; IC50 of IL-1ra in this assay (general statement)): 1 to 2.0 ng/mL | inhibition of the IL-1 response ([2]; Example 12, within 6 hours of administration): less than 50% | IL-6 ([2]; Table D1 (reagent of Example 5), 200 ug s.c. 0 hr prior to 0.2 ug rIL-1 alpha, IL-1 alone 28852 U/ml): 772 Units/ml | IL-6 ([2]; Table D1 (reagent of Example 5), 200 ug s.c. 6 hr prior to 0.2 ug rIL-1 alpha, IL-1 alone 28852 U/ml): 8361 Units/ml | IL-6 ([2]; Table D1 (reagent of Example 5), 200 ug s.c. 24 hr prior to 0.2 ug rIL-1 alpha, IL-1 alone 28852 U/ml): 22525 Units/ml | IL-6 ([2]; Table D1 (reagent of Example 5), 200 ug s.c. 48 hr prior to 0.2 ug rIL-1 alpha, IL-1 alone 28852 U/ml): 18485 Units/ml | IL-6 ([2]; Table D1 (reagent of Example 5), 200 ug s.c. 72 hr prior to 0.2 ug rIL-1 alpha, IL-1 alone 28852 U/ml): 13220 Units/ml | IL-6 ([2]; Table D3 (reagent of Example 11), 0 hr prior to IL-1 administration, IL-1 alone 27283 u/ml): 4789 Units/ml | IL-6 ([2]; Table D3 (reagent of Example 11), 6 hr prior to IL-1 administration, IL-1 alone 27283 u/ml): 15324 Units/ml | IL-6 ([2]; Table D3 (reagent of Example 11), 24 hr prior to IL-1 administration, IL-1 alone 27283 u/ml): 24841 Units/ml | IL-6 ([2]; Table D3 (reagent of Example 11), 48 hr prior to IL-1 administration, IL-1 alone 27283 u/ml): 16348 Units/ml | IL-6 ([2]; Table D3 (reagent of Example 11), 72 hr prior to IL-1 administration, IL-1 alone 27283 u/ml): 12067 Units/ml | IL-6 ([2]; Table D6 (reagent of Example 18), 0 hr prior to 0.05 ug rIL-1 alpha, IL-1 alone 9203 units/ml): 521 Units/ml | IL-6 ([2]; Table D6 (reagent of Example 18), 6 hr prior to 0.05 ug rIL-1 alpha, IL-1 alone 9203 units/ml): 2334 Units/ml | IL-6 ([2]; Table D6 (reagent of Example 18), 24 hr prior to 0.05 ug rIL-1 alpha, IL-1 alone 9203 units/ml): 13486 Units/ml | IL-6 ([2]; Table D6 (reagent of Example 18), 48 hr prior to 0.05 ug rIL-1 alpha, IL-1 alone 9203 units/ml): 16577 Units/ml | IL-6 ([2]; Table D6 (reagent of Example 18), 72 hr prior to 0.05 ug rIL-1 alpha, IL-1 alone 9203 units/ml): 12800 Units/ml | Serum Concentration of IL-1ra ([3]; 1 hr after administration): 400 | Serum Concentration of IL-1ra ([3]; 2 hr after administration): 130 | Serum Concentration of IL-1ra ([3]; 4 hr after administration): 15 | Serum Concentration of IL-1ra ([3]; 6 hr after administration): 16 | Serum Concentration of IL-1ra ([3]; time not given, line between 2 and 4 hr): 40 | Serum Level of IL-1ra ([3]; 1 hr after administration): 220 ng/mL | Serum Level of IL-1ra ([3]; 2 hr after administration): 33 ng/mL | Serum Level of IL-1ra ([3]; 3 hr after administration): 13 ng/mL | Serum Level of IL-1ra ([3]; 4 hr after administration): 5.3 ng/mL | Serum Level of IL-1ra ([3]; 6 hr after administration): 1.5 ng/mL | Serum IL-1ra ([3]; 1 hr after administration): 580 ng/mL | Serum IL-1ra ([3]; 2 hr after administration): 75 ng/mL | Serum IL-1ra ([3]; 3 hr after administration): 30 ng/mL | Serum IL-1ra ([3]; 4 hr after administration): 30 ng/mL | Serum IL-1ra ([3]; 6 hr after administration): 8 ng/mL
